This is an account of results in ChEMBL document CHEMBL1157628, “Carbonic anhydrase activators. The first activation study of a coral secretory isoform with amino acids and amines” (Bioorg Med Chem, 2010).

Substrate in series [1]: N[C@@H](Cc1c[nH]c2ccccc12)C(=O)O
Briefly: (§1) Activity of human full length CA6 at 10 uM by stopped flow CO2 hydration assay.

Substrate in series [2]: N[C@H](Cc1c[nH]c2ccccc12)C(=O)O
Described as §1.

B1: Carbonic anhydrase 6 (Homo sapiens), P23280 (protein)
chain: MRALVLLLSLFLLGGQAQHVSDWTYSEGALDEAHWPQHYPACGGQRQSPINLQRTKVRYNPSLKGLNMTGYETQAGEFPMVNNGHTVQISLPSTMRMTVADGTVYIAQQMHFHWGGASSEISGSEHTVDGIRHVIEIHIVHYNSKYKSYDIAQDAPDGLAVLAAFVEVKNYPENTYYSNFISHLANIKYPGQRTTLTGLDVQDMLPRNLQHYYTYHGSLTTPPCTENVHWFVLADFVKLSRTQVWKLENSLLDHRNKTIHNDYRRTQPLNHRVVESNFPNQEYTLGSEFQFYLHKIEEILDYLRRALN
As for B1, the kcat in series [1] was determined as 9.5 ×10⁵ /s; in series [2], 4.8 ×10⁵ /s.
